Like-named read-outs stand apart in the source and are kept apart here.
Legend:
Assay in all cases: radioligand competition, purified MHC
[1] = target: HLA-B*44:03 (human)
[2] = target: HLA-B*51:01 (human)
[3] = target: HLA-B*07:02 (human)
[4] = target: HLA-B*15:01 (human)
[5] = target: HLA-B*44:02 (human)
[6] = target: HLA-A*01:01 (human)
[7] = target: HLA-A*26:01 (human)
[8] = target: HLA-A*02:01 (human)
[9] = target: HLA-B*18:01 (human)
[10] = remark: other sources report otherwise

Binder	IC50 [1] [µM]	IC50 [2] [µM]	IC50 [3] [µM]	IC50 [4] [µM]	IC50 [5] [µM]	IC50 [6] [µM]	IC50 [7] [µM]	IC50 [8] [µM]	IC50 [9] [µM]	IC50 [1, 10] [µM]	IC50 [2, 10] [µM]	IC50 [4, 10] [µM]	IC50 [5, 10] [µM]	IC50 [6, 10] [µM]	IC50 [7, 10] [µM]	IC50 [9, 10] [µM]	IC50 [8, 10] [µM]
APHGHVMVEL (modifications not checked) [… (SEQ ID NO: 14)]	> 70	> 70	0.0061	> 70	> 70	> 70	> 70	> 70	> 70	–	–	–	–	–	–	–	–
IRQEEVQEL (modifications not checked) [… (SEQ ID NO: 31)]	> 70	> 70	> 70	> 70	> 70	> 70	> 70	> 70	> 70	–	–	–	–	–	–	–	–
HADQLTPTW (modifications not checked) [… (SEQ ID NO: 35)]	1.8	–	–	13.4	5.26	–	–	–	3.35	–	–	–	–	–	–	–	–
KNIDGYFKIY (modifications not checked) [… (SEQ ID NO: 36)]	> 70	> 70	> 70	1.45	> 70	> 70	> 70	11.8	> 70	–	–	–	–	–	–	–	–
EIKESVQTF (modifications not checked) [… (SEQ ID NO: 15)]	> 70	> 70	> 70	4.93	37.2	> 70	0.0078	> 70	> 70	–	–	–	–	–	–	–	–
SEFSSLPSY (modifications not checked) [… (SEQ ID NO: 27)]	–	> 70	> 70	0.0069	–	39.8	0.875	> 70	0.00037	–	–	–	–	–	–	–	–
DEFVVVTV (modifications not checked) [DEFVVVTV (SEQ ID NO: 11)]	1.28	12.8	52.8	2.05	2.79	> 70	9.55	13	< 0.0005	–	–	–	–	–	–	–	–
NATNVVIKV (modifications not checked) [… (SEQ ID NO: 37)]	8.11	0.536	> 70	> 70	> 70	> 70	43.4	–	> 70	–	–	–	–	–	–	–	–
VGYLQPRTF (modifications not checked) [… (SEQ ID NO: 39)]	> 70	–	> 70	0.777	> 70	> 70	> 70	> 70	0.707	–	–	–	–	–	–	–	–
QLTPTWRVY (modifications not checked) [… (SEQ ID NO: 38)]	> 70	> 70	> 70	0.011	> 70	> 70	> 70	> 70	> 70	–	–	–	–	–	–	–	–
MLLGSMLYM (modifications not checked) [… (SEQ ID NO: 4)]	–	7.87	–	0.0011	18.9	–	45.5	< 0.0005	–	–	–	–	–	–	–	–	–
SLEDKAFQL (modifications not checked) [… (SEQ ID NO: 7)]	–	–	–	1.58	–	–	–	0.02	–	–	–	–	–	–	–	–	–
YLNSTNVTI (modifications not checked) [… (SEQ ID NO: 24)]	49.6	3.62	7.93	0.0012	–	–	–	0.012	–	–	–	–	–	–	–	–	–
LATNNLVVM (modifications not checked) [… (SEQ ID NO: 16)]	46.5	32.7	0.055	0.315	40.2	> 70	> 70	> 70	> 70	–	–	–	–	–	–	–	–
STSAFVETV (modifications not checked) [… (SEQ ID NO: 19)]	> 70	> 70	8.86	10.4	> 70	12.7	12.1	0.026	> 70	–	–	–	–	–	–	–	–
FGDDTVIEV (modifications not checked) [… (SEQ ID NO: 23)]	–	–	> 70	–	–	–	–	–	–	> 70	45.7	2.38	> 70	> 70	> 70	> 70	–
APRITFGGP (modifications not checked) [… (SEQ ID NO: 42)]	> 70	> 70	0.059	> 70	> 70	> 70	> 70	0.893	> 70	–	–	–	–	–	–	–	–
ELPDEFVVV (modifications not checked) [… (SEQ ID NO: 12)]	> 70	> 70	> 70	> 70	> 70	> 70	6.86	0.46	> 70	–	–	–	–	–	–	–	–
KAFQLTPIAV (modifications not checked) [… (SEQ ID NO: 13)]	16.4	38.7	8.6	1.2	> 70	> 70	> 70	0.0078	3.87	–	–	–	–	–	–	–	–
LEDKAFQL (modifications not checked) [LEDKAFQL (SEQ ID NO: 10)]	0.208	–	–	14.7	35.4	–	–	3.89	0.035	–	–	–	–	–	–	–	–
ELPDEFVVVTV (modifications not checked) [… (SEQ ID NO: 8)]	> 70	> 70	> 70	35.1	> 70	> 70	0.072	0.0016	1.13	–	–	–	–	–	–	–	–
GLITLSYHL (modifications not checked) [… (SEQ ID NO: 5)]	24.3	–	14.3	1.5	26	–	40.3	< 0.0005	–	–	–	–	–	–	–	–	–
GPMVLRGLIT (modifications not checked) [… (SEQ ID NO: 6)]	–	–	–	8.55	–	–	0.884	2	–	–	–	–	–	–	–	–	–
KRVDWTIEY (modifications not checked) [… (SEQ ID NO: 29)]	–	–	> 70	–	–	–	–	–	–	> 70	22.7	0.356	> 70	> 70	> 70	> 70	> 70
FAVDAAKAY (modifications not checked) [… (SEQ ID NO: 28)]	> 70	> 70	> 70	0.0027	> 70	> 70	0.0067	> 70	35.9	–	–	–	–	–	–	–	–
FASEAARVV (modifications not checked) [… (SEQ ID NO: 17)]	> 70	0.207	8.55	2.55	> 70	> 70	0.734	0.495	49.5	–	–	–	–	–	–	–	–
EEFEPSTQYEY (modifications not checked) [… (SEQ ID NO: 20)]	0.00041	> 70	> 70	0.078	0.05	> 70	18.8	> 70	0.0011	–	–	–	–	–	–	–	–
